# In patent publication US20220162268A1 (BOARD OF TRUSTEES OF MICHIGAN STATE UNIVERSITY, published 2022):
# T1: K28A_HO BMC-H 5815ggsSZ5-HA
# T1 construct: Self-assembles into higher-order sheets in E. coli; also called K28A 5815-Synthetic Zipper5 construct; K28AHO BMC-H-SZ5
# T1 chain: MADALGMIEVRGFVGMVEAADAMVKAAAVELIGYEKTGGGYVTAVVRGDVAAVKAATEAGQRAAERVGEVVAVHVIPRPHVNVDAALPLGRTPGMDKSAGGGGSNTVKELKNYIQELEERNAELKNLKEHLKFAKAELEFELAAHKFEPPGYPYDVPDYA
# Assays:
# [1] = target: T1, K28A_HO BMC-H 5815ggsSZ5-HA; assay: fluorescence co-localization in E. coli, 100 µM or 500 µM IPTG (FIG. 2I)
# [2] = target: T1, K28A_HO BMC-H 5815ggsSZ5-HA; assay: fluorescence co-localization in E. coli, deconvolved widefield (FIG. 2C)
# [3] = target: T1, K28A_HO BMC-H 5815ggsSZ5-HA; assay: fluorescence microscopy of E. coli co-expressing both, 100 µM or 500 µM IPTG (FIG. 2I)
# [4] = target: T1, K28A_HO BMC-H 5815ggsSZ5-HA; assay: live-cell fluorescence time course in E. coli
# Experimental: E. coli BL21 ArcticExpress (DE3) competent cells (Agilent) were used for cellular expression studies. Competent cells were transformed with constructs containing the gene(s) of interest and plated on LB agar plates with the appropriate antibiotic(s) to provide selection. Individual colonies were picked into 5 mL LB cultures with the appropriate antibiotics(s) and incubated at 30° C., with a rotational stirring of 250 RPM. These overnight cultures were inoculated 1:100 into fresh liquid cultures with conditions dependent upon the experimental plan. For TEM analysis, cells were inoculated in 50 mL LB, grown until ˜OD₆₀₀ 0.8, induced with 100 μM IPTG, and incubated for an additional 6 hours, before 2 mL of the parent culture was fixed overnight at 4° C. Cells used to purify protein were cultured in a similar manner, the whole culture was pelleted, and cell pellets were stored at −20° C. for subsequent protein isolation. Cultures analyzed via light microscopy were inoculated into 1 mL LB or SOB media in culture tubes and incubated the indicated amount of time before imaging. Appropriate inducer(s) (IPTG or aTc) were added as indicated for each experimental design.
# The dynamics of scaffold nucleation and maturation was then visualized over time in live cells. […]
binder,measurement,setting,value
"Synthetic Zipper6 LINKER mScarlet-I StrepII Tag construct (designed binder, also called SZ6-ggs-mScarlet-I; SZ6-mScarlet-I) MQKVAQLKNRVAYKLKENAKLENIVARLENDNANLEKDIANLEKDIANLERDVARGSGGGSGGGSMVSKGEAVIKEFMRFKVHMEGSMNGHEFEIEGEGEGRPYEGTQTAKLKVTKGGPLPFSWDILSPQFMYGSRAFIKHPADIPDYYKQSFPEGFKWERVMNFEDGGAVTVTQDTSLEDGTLIYKVKLRGTNFPPDGPVMQKKTMGWEASTERLYPEDGVLKGDIKMALRLKDGGRYLADFKTTYKAKKPVQMPGAYNVDRKLDITSHNEDYTVVEQYERSEGRHSTGGMDELYKSAWSHPQFEK",binding result,[1],binds
"Synthetic Zipper6 LINKER mNeonGreen StrepII Tag construct (designed binder, also called SZ6-ggs-mNeonGreen; SZ6-mNeonGreen) MQKVAQLKNRVAYKLKENAKLENIVARLENDNANLEKDIANLEKDIANLERDVARGSGGGSGGGSMVSKGEEDNMASLPATHELHIFGSINGVDFDMVGQGTGNPNDGYEELNLKSTKGDLQFSPWILVPHIGYGFHQYLPYPDGMSPFQAAMVDGSGYQVHRTMQFEDGASLTVNYRYTYEGSHIKGEAQVKGTGFPADGPVMTNSLTAADWCRSKKTYPNDKTIISTFKWSYTTGNGKRYRSTARTTYTFAKPMAANYLKNQPMYVFRKTELKHSKTELNFKEWQKAFTDVMGMDELYKSAWSHPQFEK",binding result,[2],binds
"STREP-mScarlet-I (other, Fluorescent cargo without an SZ6 domain; also called untagged cargo) MVSKGEAVIKEFMRFKVHMEGSMNGHEFEIEGEGEGRPYEGTQTAKLKVTKGGPLPFSWDILSPQFMYGSRAFIKHPADIPDYYKQSFPEGFKWERVMNFEDGGAVTVTQDTSLEDGTLIYKVKLRGTNFPPDGPVMQKKTMGWEASTERLYPEDGVLKGDIKMALRLKDGGRYLADFKTTYKAKKPVQMPGAYNVDRKLDITSHNEDYTVVEQYERSEGRHSTGGMDELYK",binding result,[3],no binding
"STREP-mNeonGreen (other, not shown: small tags and cut ends, Fluorescent cargo without an SZ6 domain; also called untagged cargo; untagged cargo construct PLacO::mNeonGreen) MVSKGEEDNMASLPATHELHIFGSINGVDFDMVGQGTGNPNDGYEELNLKSTKGDLQFSPWILVPHIGYGFHQYLPYPDGMSPFQAAMVDGSGYQVHRTMQFEDGASLTVNYRYTYEGSHIKGEAQVKGTGFPADGPVMTNSLTAADWCRSKKTYPNDKTIISTFKWSYTTGNGKRYRSTARTTYTFAKPMAANYLKNQPMYVFRKTELKHSKTELNFKEWQKAFTDVMGMDELYK",binding result,[4],no binding
